The nature of the data set: Human insulin infusion via implanted drug delivery catheter system (DDCS) in rats, plasma insulin and glucose versus time. It counts as in vivo. As to conditions: for Time at which blood insulin levels peaked post infusion: human insulin 10 milliU/kg/min, 20 weeks post implantation. An excerpt: The devices were implanted in 4 rats weighing ˜350 gm. Each animal was implanted with 2 devices: a mesenteric DDCS, implanted within the loose connective tissue of the bowel mesentery, and a subcutaneous DDCS implanted in the dorsal subcutaneous loose connective tissue. Catheters were primed with saline and proximal ends sealed. Catheters were then coiled and secured within the abdominal and subcutaneous spaces, respectively. There were no perioperative surgical complications and all 4 animals increased to a mean weight of 592±83 gm by 20 weeks.
The proximal portion of the catheters was exteriorized at 20-weeks post implantation and human insulin infusions were started at 10 milliU/kg/min with infusion rates of 60 μL/hr after careful determination of catheter dead space volume. Two animals were randomly assigned to receive insulin via mesenteric DDCS and two animals received infusions via subcutaneous DDCS. When the infusion was terminated, depth of anesthesia was increased and DDCS and surrounding tissue were explanted and immediately immersed in 10% buffered formalin for histological analysis. Tissue specimens were embedded in paraffin and 7-10 microns sections were prepared for H and E stains.

For the substance insulin, the “Time at which blood insulin levels peaked post infusion” value (mesenteric DDCS) is reported as at most 5 min and the “Time at which blood insulin levels peaked post infusion” value (subcutaneous DDCS) was at most 5 min. Further, where the note is “mesenteric and subcutaneous DDCS, 10 milliU/kg/min, measured at 5, 15, 30 min, not fasted, isoflurane anesthesia”, the “Blood glucose concentrations during insulin infusion” value is reported as “decreased in proportion to increasing insulin concentrations”.

Values taken from patent publication US6471689B1, “Implantable drug delivery catheter system with capillary interface” (Thomas Jefferson University, priority 1999, dated 2002).
